In patent US7981602B2, “Photoproteins with enhanced bioluminescence and assays using the same” (AXXAM S.R.L., priority 2005, dated 2011):

How the values were obtained:
[1] = tested on: CHOK1/mito12mutCly cell line; assay: ATP-stimulated luminescence in CHOK1/mito12mutCly cell line (CCD camera); format: cell-based; settings: ATP stimulation, 2.5 or 5 μM coelenterazine
Method: Clone Selection Process: • CHO-K1 were transfected with pcDNA3Neo^−/MITO-hMutated-clytin or pcDNA3Neo^−/CYTO-hMutated-clytin. • 48 h after transfection, the transfected cells were plated in 10×96 w/p in complete DMEM. • At confluence the 10×96 w/p were duplicated in 10 white plates. 3 1/2 hours before measurements, medium was replaced with 50 μl/well of tyrode (2 mM Ca^2+ and coelenterazine 10 μM). • Positive clones were selected evaluating: • First selection was done lysing cells with TRITON X-100. CCD camera conditions: low sensitivity, integration time 1 second reading for 5 seconds. • Five clones were chosen each diluted in 3×96 w/p. • At confluence the 15×96 w/p were duplicated in 15 white plates. […] CCD camera conditions: low sensitivity, integration time 1 second reading for 30 seconds for the ATP measurement followed by 30 seconds for TRITON X-100. • Four limiting dilutions of the best clone selected were performed, 0.3 cells per well in 10×96 w/p. • The final clone was chosen after the 4th LD selected with ATP 0.25 μM, coelenterazine 5 μM. • Complete optimization of the assay was performed on the best responding clone.
CHO cells are seeded at different cell densities in 384MTP (500, 750, 1,000, 1,500 cells/well) in growth media supplemented as above and measured with a CCD camera 24 hours and 48 hours after plating. […]

[2] = In vitro transcription and translation, light emission upon calcium injection; format: biochemical; settings: translation mixture, 5 μM CaCl2 injected, luminescence recorded 10 seconds; comparison among the 8 mutants (FIG. 2)
Method: Translation of the photoproteins was carried out in the rabbit reticulocyte cell-free system (TNT Quick coupled kit, Promega), following the general instructions of the supplier. 500 ng of DNA was used for each in vitro transcription/translation reaction mix. The reaction volume (10 μl) included 8 μl of TNT T7 Quick Master Mix, 1.6 μl of DNA, 0.2 μl of the Methionine buffer and 0.2 μl of Coelenterazine (0.5 mM). To this end, 5 μl from each sample of the translation mixture were tested for light emission by the injection of calcium solution and by measuring at the Ascent Luminoskan (Labsystems).
5 μl of the translation mixture were directly mixed with 95 μl of PBS solution in a 96 well plate which was mounted into the Luminometer (Berthold). To trigger photoprotein light emission, a 5 μM CaCl2 solution was injected into the well and luminescence recorded for 10 seconds.

[3] = Recombinant photoprotein light emission upon 1 mM calcium injection; format: biochemical; settings: 1 mM CaCl2 (FIG. 6)
Method: For the production of the recombinant protein we followed a small scale protein purification protocol under native conditions. Due to the presence of an N-terminal His tag in our constructs, we decided to purify the expressed proteins on Ni-NTA Spin Columns (Qiagen) following the suppliers' protocol.
In order to evaluate the response of the photoprotein to different calcium concentrations, 0.05 ng/well (96 MTP) of the recombinant protein were charged with Coelenterazine 10 μM overnight at 4° C.
After incubation, different concentrations of CaCl2 were injected and the light released was measured at the Ascent Luminoskan with an integration time of 20 ms for a total time of 10 seconds.
Recombinant photoproteins corresponding to some mutants were produced under native conditions following a small scale purification protocol.
In another experiment, the recombinant photoprotein 25N03b was compared to recombinant Aequorin.

Molecule | light emission and sensitivity to Ca2+ in cells [1] | light emission of in vitro translated mutants upon calcium injection [2] | light emission recorded upon 1 mM CaCl2 injection, compared to recombinant Aequorin [3]
12mutCly: mutant Clytin photoprotein 12mutCly (SEQ ID NO: 19), expressed in CHOK1 cells (protein) MADTASKYAVKLRPNFDNPKWVNRHKFMFNFLDINGDGKITLDEIVSKASDDICAKLEATPEQTKRHQVCVEAFFRGCGMEYGKEIAFPQFLDGWKQLATSELKKWARNEPTLIREWGDAVFDIFDKDGSGSISLDEWKAYGRISGICSSDEDAEKTFKHCDLDNSGKLDVDEMTRQHLGFWYTLDPNADGLYGNFVP | high light emission and sensitivity to Ca^2+ | – | –
25N03b: mutant Clytin photoprotein from random mutagenesis, clone 25N03b (sequence ID no 16) (protein) MADTASKYAVKLRPNFDNPKWVNRHKFMFNFLDINGDGKITLDEIVSKASDDICAKLGATPEQTKRHQDAVEAFFKKIGMDYGKEVEFPAFVDGWKELANYDLKLWSQNKKSLIRDWGEAVFDIFDKDGSGSISLDEWKAYCRISGICSSDEDAEKTFKHCDLDNSGKLDVDEMTRQHLGFWYTLDPNADGLYGNFVP | – | best responding mutant | surprisingly higher
